{
  "source": "patent US20170240614A1",
  "key": {"[1]": {"target": "human insulin receptor isoform B (hIR-B) containing a C9 epitope tag at the C-terminus (human) (UniProt P06213)", "assay": "competitive radioligand binding (SPA), [125I]-A14-insulin, hIR-B membranes"}, "[2]": {"target": "human insulin receptor isoform A (hIR-A) (human) (UniProt P06213)", "assay": "competitive radioligand binding (SPA), [125I]-A14-insulin, hIR-A membranes"}, "[3]": {"target": "human insulin receptor isoform B (hIR-B) containing a C9 epitope tag at the C-terminus (human) (UniProt P06213)", "assay": "cell-based or functional assay"}},
  "data": [
    {"substance": "IGF-1 (from UniProt P05019 49-118) (ligand)", "values": [
      {"measurement": "Ki", "setting": "[1]", "result": 50.8, "unit": "nM"},
      {"measurement": "Ki", "setting": "[2]", "result": 4.1, "unit": "nM"},
      {"measurement": "Receptor Phosphorylation EC50", "setting": "[3]", "result": 253, "unit": "nM"}
    ]}
  ]
}
